Laboratory results from the supplement of paper PMC7877785.
± gives the uncertainty stated by the source.

Assay: self-splicing fitness, log relative to wild type (ln ratio); higher = more splicing; Tetrahymena group I intron in knt gene, E. coli kanamycin selection, DiMSum; sequences stand for … in CUCUCU…GGAGGGAAAAGUUAUCAGGCAUGCACCUGGUAGCUAGUCUUUAAACCAAUAGAUUGCAUCGGUUUAAAAGGCAAGACCGUCAAAUUGCGGGAAAGGGGUCAACAGCCGUUCAGUACCAAGUCUCAGGGGAAACUUUGAGAUGGCCUUGCAAAGGGUAUGGUAAUAAGCUGACGGACAUGGUCCUAACCACGCAGCCAAGUCCUAAGUCAACAGAUCUUCUGUUGAUAUGGAUGCAGUUCACAGACUAAAUGUCGGUCGGGGAAGAUGUAUUCUUCUCAUAAGAUAUAGUCGGACCUCUCCUUAAUGGGAGCUAGCGGAUGAAGUGAUGCAACACUGGAGCCGCUGGGAACUAAUUUGUAUGCGAAAGUAUAUUGAUUAGUUUUGGAGUACUCGUGGUCG
Procedure, shortened: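 Six replicate transformations of E. coli BL21(DE3) with a pET-22b(+) library were grown overnight at 37°C or 30°C. The library randomised all eight P1ex-region intron nucleotides, the intron lying in the knt kanamycin-resistance gene, and plates were LB agar with or without 25 μg/mL kanamycin plus 100 μg/mL carbenicillin, 50 μM IPTG and 0.2% rhamnose. Pooled colonies were amplicon-sequenced on an Illumina HiSeq 2500, and fitness is the DiMSum error-weighted combination of wild-type-normalised replicate fold changes, kanamycin versus none.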

| Sequence | self-splicing fitness (ln) (30 °C) | self-splicing fitness (ln) (37 °C) |
| --- | --- | --- |
| GAGUAGCAAUAUUACGACCG | -3.1 ± 0.39 | -0.977 ± 0.37 |
| AGGAAGCAAUAUUACGACCG | -0.0847 ± 0.2 | 0.135 ± 0.23 |
| GCCUAGCAAUAUUACGCGGC | -3.58 ± 0.35 | -2 ± 0.28 |
| CCUGAGCAAUAUUACGAGCA | -3.49 ± 0.27 | -3.47 ± 0.3 |
| CAUCAGCAAUAUUACGAGGA | -3.13 ± 0.23 | -2.6 ± 0.19 |
| AAACAGCAAUAUUACGGAAG | -3.7 ± 0.2 | -1.8 ± 0.17 |
| AUUUAGCAAUAUUACGUACG | -1.48 ± 0.19 | -1.66 ± 0.34 |
| AGAGAGCAAUAUUACGUCCC | -2.37 ± 0.33 | -1.25 ± 0.37 |
| UUUUAGCAAUAUUACGGCAC | – | -0.642 ± 0.28 |
| CGUGAGCAAUAUUACGCAUU | -4.1 ± 0.47 | -2.15 ± 0.19 |
| GGGCAGCAAUAUUACGCUGG | -3.14 ± 0.14 | -2.53 ± 0.16 |
| UGAGAGCAAUAUUACGUCCG | -1.25 ± 0.23 | -1.19 ± 0.42 |
| ACGCAGCAAUAUUACGUGCG | -3.58 ± 0.13 | -2.85 ± 0.15 |
| UAAGAGCAAUAUUACGAGUU | -3.16 ± 0.14 | -2.87 ± 0.23 |
| CGCGAGCAAUAUUACGCUAC | – | -2.08 ± 0.25 |
| GAGUAGCAAUAUUACGGAGA | -2.29 ± 0.37 | -2.12 ± 0.29 |
| UAAUAGCAAUAUUACGAAUA | -2.51 ± 0.34 | -1.28 ± 0.17 |
| ACGUAGCAAUAUUACGGAUU | -2.5 ± 0.14 | -1.8 ± 0.2 |
| GUCAAGCAAUAUUACGGACA | -3.06 ± 0.39 | -2.09 ± 0.19 |
| UGUCAGCAAUAUUACGAGUU | -1.33 ± 0.14 | -1.44 ± 0.2 |

| Sequence | self-splicing fitness (ln) (30 °C) | self-splicing fitness (ln) (37 °C) |
| --- | --- | --- |
| AGCGAGCAAUAUUACGUUUA | – | -1.96 ± 0.26 |
| CCAAAGCAAUAUUACGCGCU | -3.57 ± 0.15 | -3.13 ± 0.17 |
| CAUAAGCAAUAUUACGACGG | -0.41 ± 0.072 | -0.00998 ± 0.088 |
| UGGGAGCAAUAUUACGUGUG | -1.75 ± 0.22 | -2.26 ± 0.33 |
| GAUAAGCAAUAUUACGGGUU | -2.18 ± 0.12 | -2.26 ± 0.15 |
| UAGUAGCAAUAUUACGCAAA | -3.4 ± 0.3 | -2.28 ± 0.2 |
| AUUUAGCAAUAUUACGAUUG | -2.72 ± 0.21 | -2.05 ± 0.27 |
| AAGAAGCAAUAUUACGUAAA | -2.27 ± 0.1 | -1.14 ± 0.14 |
| GUGCAGCAAUAUUACGCUGG | -2.41 ± 0.12 | -1.09 ± 0.13 |
| CAAUAGCAAUAUUACGCCAC | -2.84 ± 0.28 | – |
| UGGGAGCAAUAUUACGUUUG | -3.75 ± 0.27 | -2.14 ± 0.27 |
| UUUGAGCAAUAUUACGAAUG | -3.15 ± 0.25 | -0.965 ± 0.29 |
| GUCAAGCAAUAUUACGCGCC | -4.2 ± 0.3 | -1.95 ± 0.23 |
| GUCCAGCAAUAUUACGCGGG | -4.23 ± 0.26 | -2.92 ± 0.24 |
| CCCCAGCAAUAUUACGGUAU | -3.72 ± 0.13 | -2.88 ± 0.2 |
| GCUUAGCAAUAUUACGCCAC | -1.67 ± 0.32 | -1.17 ± 0.45 |
| AUACAGCAAUAUUACGUGGA | -3.06 ± 0.12 | -2.47 ± 0.12 |
| AUAAAGCAAUAUUACGCAAC | -1.38 ± 0.13 | -1.34 ± 0.21 |
| CGUAAGCAAUAUUACGUGGG | -3.43 ± 0.16 | -2.67 ± 0.15 |
